Reference: US12709641B2
Where a chain is given by its changes, count along the chain named.

B1: V0024 (antibody, V domains shown)
VH: QVQLQQPGTELVKPGASVKLSCKASGYTFTRFWMHWVKQRPGQGLEWIGNINPNNGGTDNNERFKSKATLTVDRSSSTAYMQLSSLTSEDSAVYYCARGTGTGAMDYWGQGTSVTVSS
VL: DVVMTQTPLSLPVSLGDQASISCRSSQSLVHSNGNTHLYWYLQKPGQSPKLLIYRVSSRFSGVPDRFSGSGSGTDFTLKISRVEAEDLGVYFCFQGTHVPRTFGGGTKLEIK
modifications: here or on the partner: phosphorylated residues of pathological tau, sites not stated
B2: V00016 (antibody, V domains shown)
VH: EVQLQQSGAELVKPGASVKLSCTASGFNIKDYYIHWVKQRTEQGLEWIGRIDPEDGETKYAPKFQGKATIAADTSSNTAYLHLNSLTSEDTAVYYCAREFSYAMDYWGQGTSVTVSS
VL: NIMMTQSPSSLAVSAGEKVTMSCKSSQSVLYSSNQKNYLAWYQQKPGQSPKLLIYWASTRESGVPDRFTGSGSGTDFTLTISSVQAEDLAVYYCHQYLSSRTFGGGTKLEIK
B3: V0022 (antibody, V domains shown)
VH: QVQLQQPGTELVKPGSSVNLSCKASGFTFTRYWMHWVKERPGHGLEWIGNINPNNGGTDFNEKFKNKATLTVHKSSTTVFIQLSSLTSEDSAVYYCARGTGTGAMDYWGQGTSVTVSS
VL: B1 VL with S32N, N35I, H37Y, S58N, S68G
B4: V0050 (antibody, V domains shown)
VH: EVQLQQSGPELVKPGASVKIPCRASGYTFTDYNMDWVKQSHGKTLEWIGDINPNNGGTIYNQKFKGKATLTVDKSSSTAYMELRSLTSEDTAVYYCARGRGMGYYALDYWGQGTSVTVSS
VL: DIQMTQSPASLSASVGETVTFTCGASENVYGALNWYQRKQGKSPQLLIYGATNLADGMSSRFSGSGSGRQYSLKISSLHPDDVATYYCQNVLTIPWTFGGGAKLEIK
B5: V0052 (antibody, V domains shown)
VH: not shown
VL: SIVMTQTPKFLLVSAGDRVTITCKASQSVSNDVAWYQQKPGQSPKLLIYYASNRCTGVPDRFTGSGYGTDFTFTISTVQAEDLAVYFCQQDYRSPLTFGAGTKLELK
B6: V0026 (antibody, V domains shown)
VH: QVQLQQSGPELVKPGASVKISCKASGYSFTDYYINWVKQRPGQGLEWIGWIFPGSDSTYYNEKFKGKATLTVDKSSSTASMLLSSLTSEDSAVYFCARPTVVARDYAMDYWGQGTSVTVSS
VL: B1 VL with V3L, L29I, H31Y, H37Y, Y39E, R55K, S58N, F92Y, T97S, R101Y
B7: V0058 (antibody, V domains shown)
VH: not shown
VL: DIVMTQSPSSLSVSAGEKVTMSCKSSQSLLSSGNQKNYLAWYQQKPGQPPKLLIYGASTRESGVPDRFTGSGSGTDFTLTISSVQAEDLAVYYCQNDHSHPYTFGGGTKLEIK
B8: V0055 (antibody, V domains shown)
VH: not shown
VL: B7 VL with S31N
B9: V0023 (antibody, V domains shown)
VH: B1 VH with R31I, Q43H, N50K, T58G, N60Y, R63K, R74K, S77T, M81L
VL: B1 VL with Q18H, N35I, K44R, S48T, S58N, R82S, K112E
B10: V0027 (antibody, V domains shown)
VH: B6 VH with S28T, D31E, I34L, V37M, S55R, D56G, Y59N, S80Y, V101I
VL: DVLMTQTPLSLPVSLGDQASISCRSSQSIVHRNGNTYLEWYLQKPGQSPKLLIYKVSNRFSGVPDRFSGSGSGTDFTLKISRVEAEDLGVYYCFQGSHVPFTFGSGTKLEIK
B11: V0021 (antibody, V domains shown)
VH: QVQLQQPGIELVKTGASVKLSCKASGYTFTSNWMHWLKQRPGQGLEWIGNINPNNSETNYNEKFRKKATLTVDKSSSAAYMQLISLTSEDSAVYYCARANYYGGSQFAYWGQGTLVTVSA
VL: DVVMTQTPLSLCVSLGDQASISCRSSQSLVHSNGKTYLHWYLQKPGQSPNLLIYKVSNRFSGVPDRFSGSGSGTDFTLKISRVEAEDLGVYFCSQSTHVPFTFGSGTKLEIK
B12: V0057 (antibody, V domains shown)
VH: not shown
VL: B7 VL with S31N
B13: V0032 (antibody, V domains shown)
VH: QVQLKQSGAELVRPGASVKLSCKTSGYTFTDYYIKWVKQRPGQGLEWIARIYPGSGNTYYNEKFKGKATLTAEKSSSTAYMQLSSLTSEDSAVYFCARPAYYSKDYAMEYWGQGTSVTVSS
VL: B10 VL with H31Y, R32T, F101Y, S105G
B14: V0004 (antibody, V domains shown)
VH: QVQLQQPGAELVKPGASVKLSCKASDYTFTNYWMHWVKQRPGRGLEWIGRIDPNSGGTRYNEKFKNKATLTVDKPSSTAYMHLSSLTSEDSAVYYCAGDFDVWGTGTTVTVSS
VL: DIQMTQSPASLSASVGETVTITCRASGNIHNYLAWYQQRQGKSPQLLVYNAKTLPDGVPSRFSGSGSGTQYSLKINSLQPEDFGSYCCQHFWSTPLTFGAGTKLELK
B15: V0020 (antibody, V domains shown)
VH: B11 VH with I9T, E10D, T14P, N32Y, E57D, T58A, R65K, K66S
VL: B11 VL with M4V, C12P
B16: V0031 (antibody, V domains shown)
VH: QVQLQQPGTELVKPGASVKLSCKASGYTFTSYWMHWVKQRPGQGLEWIGNIYPSNGGTYYNEKFKSKATLTVDKSSSTAYMQLSSLTSEDSAVYYCARSSVVGRDYAMDYWGQGTSVTVSS
VL: B10 VL with S22A, R32S, K50E, F101Y, S105G
B17: V0054 (antibody, V domains shown)
VH: not shown
VL: B7 VL with S31N, A57T

Key:
Settings in all cases: remark: other sources report otherwise
[1] = target: T1, enriched paired helical filament tau protein (ePHF) (human); assay: direct ELISA
[2] = target: T1, enriched paired helical filament tau …; assay: follow up analysis, method not stated
[3] = target: wild type tau (Homo sapiens (Human)), P10636; assay: Octet
[4] = target: iPHF (Homo sapiens (Human)), P10636; assay: Octet, antibody on biosensor tips

| Binder | Kd [3] [nM] | other results |
| --- | --- | --- |
| B1 | > 200 | EC50 [1]: 0.125 nM; selectivity for ePHF over wild type tau [2]: > 100 fold; Kd [4]: 2.8 nM |
| B2 |  | Kd [4]: 5.5 nM |
| B3 | > 200 |  |
| B4 | > 200 |  |
| B5 | > 200 |  |
| B6 | > 200 |  |
| B7 | > 200 |  |
| B8 | > 200 |  |
| B9 | > 200 |  |
| B10 | > 200 |  |
| B11 | > 200 |  |
| B12 | > 200 |  |
| B13 | > 200 |  |
| B14 | > 200 |  |
| B15 | > 200 |  |
| B16 | > 200 |  |
| B17 | > 200 |  |
